The source of these data is paper PMC11260466, “Binding of the TRF2 iDDR motif to RAD50 highlights a convergent evolutionary strategy to inactivate MRN at telomeres”.

The data set deals with HsRAD50-head (Homo sapiens, UniProt Q92878;Q92878 1-200;1113-1312). Kind of data set: EMSA; Mg-ATP; EMSA: 20 mM Bis-Tris propane pH 8.0, 200 mM NaCl, 0.5 mM TCEP, Mg-ATP added to RAD50, 500 nM DNA duplex; 5% polyacrylamide, 0.5x TBE, 4 C gel run (binding temperature not stated). Particulars: protein: recombinant; tags: C-terminal 3C site + 2xStrep-II on the 1-200 fragment; chain copies: 2;2; label: 5'-carboxyfluorescein (F) on strand 1; blunt ends; as printed S2 is 47 nt and lacks the G opposite C21 of S1 (1-nt bulge, possibly a misprint). Background: Mobility shift assays separate free from complexed probe on a gel.
HsRAD50-head, sequence (Q92878 1-200, chain 1 of 2): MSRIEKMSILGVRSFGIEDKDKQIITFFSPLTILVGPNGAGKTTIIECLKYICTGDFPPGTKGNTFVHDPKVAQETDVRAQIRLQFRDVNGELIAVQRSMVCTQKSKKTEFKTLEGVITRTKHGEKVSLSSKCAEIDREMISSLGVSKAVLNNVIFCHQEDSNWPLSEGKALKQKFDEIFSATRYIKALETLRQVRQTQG
HsRAD50-head, sequence (Q92878 1113-1312, chain 2 of 2): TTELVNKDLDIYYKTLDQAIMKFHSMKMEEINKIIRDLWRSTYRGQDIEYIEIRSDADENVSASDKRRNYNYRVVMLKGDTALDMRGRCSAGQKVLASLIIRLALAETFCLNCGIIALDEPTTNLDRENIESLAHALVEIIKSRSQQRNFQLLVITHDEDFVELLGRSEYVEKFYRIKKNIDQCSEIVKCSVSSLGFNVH

B1: 48-mer DNA duplex (dsDNA)
DNA 1: TAGTGCTGTAGGAGAATATACGGGCTGCTCGTGTTGACAAGTACTGAT
DNA 2: ATCAGTACTTGTCAACACGAGCAGCCCTATATTCTCCTACAGCACTA
As to B1, the binding result is recorded as “binds”.
